Drawing on paper PMC9334453, this text covers response for 1 molecule.

The target in this assay is murine monoclonal IgE antibody 2F5 (anti-profilin Hev b 8). Nature of the assay: ELISA. The following applies: chain shown with the change; n = 4; parent: est. 0.26; read off a plot. (In general: An ELISA detects its analyte on a solid surface through an enzyme-linked reagent.)

B1: recombinant maize profilin (rZea m 12) E128D (protein)
chain: GMSWQAYVDDHLLCDIEGQHLSAAAIVGHDGSVWAQSENFPELKPEEVAGMIKDFDEPGTLAPTGLFVGGTKYMVIQGEPGVVIRGKKGTGGITIKKTGMSLIIGIYDEPMTPGQCNMVVERLGDYLIDQGF
As for B1, the response stood at 0.4 Abs 405nm.
